According to patent US20190134153A1, “IMMUNOMODULATORY EFFECT OF INHALED KINASE INHIBITOR PEPTIDES IN LUNG” (MOERAE MATRIX, INC., priority 2017, published 2019):

Legend:
Test in all cases: Kinase Profiling Assay
Format in all cases: biochemical
Conditions in all cases: 100 μM
ErbB4(h) = ErbB4(h) (Homo sapiens, UniProt Q15303)
Aurora-A(h) = target: T1, Aurora-A(h) (Homo sapiens, UniProt O14965)
T1 sequence (O14965 1-403): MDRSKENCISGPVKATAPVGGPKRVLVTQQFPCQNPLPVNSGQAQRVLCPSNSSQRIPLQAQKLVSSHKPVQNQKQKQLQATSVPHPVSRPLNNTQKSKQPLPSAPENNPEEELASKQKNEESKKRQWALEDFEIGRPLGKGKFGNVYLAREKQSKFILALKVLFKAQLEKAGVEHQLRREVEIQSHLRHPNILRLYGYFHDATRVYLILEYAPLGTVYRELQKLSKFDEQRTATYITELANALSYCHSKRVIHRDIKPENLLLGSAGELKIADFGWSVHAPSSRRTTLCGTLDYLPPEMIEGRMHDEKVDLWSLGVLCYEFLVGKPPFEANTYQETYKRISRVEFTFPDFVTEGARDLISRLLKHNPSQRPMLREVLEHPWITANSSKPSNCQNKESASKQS

MARK1(h) = MARK1(h) (Homo sapiens, UniProt Q9P0L2)
MARK1(h), sequence (Q9P0L2 whole entry): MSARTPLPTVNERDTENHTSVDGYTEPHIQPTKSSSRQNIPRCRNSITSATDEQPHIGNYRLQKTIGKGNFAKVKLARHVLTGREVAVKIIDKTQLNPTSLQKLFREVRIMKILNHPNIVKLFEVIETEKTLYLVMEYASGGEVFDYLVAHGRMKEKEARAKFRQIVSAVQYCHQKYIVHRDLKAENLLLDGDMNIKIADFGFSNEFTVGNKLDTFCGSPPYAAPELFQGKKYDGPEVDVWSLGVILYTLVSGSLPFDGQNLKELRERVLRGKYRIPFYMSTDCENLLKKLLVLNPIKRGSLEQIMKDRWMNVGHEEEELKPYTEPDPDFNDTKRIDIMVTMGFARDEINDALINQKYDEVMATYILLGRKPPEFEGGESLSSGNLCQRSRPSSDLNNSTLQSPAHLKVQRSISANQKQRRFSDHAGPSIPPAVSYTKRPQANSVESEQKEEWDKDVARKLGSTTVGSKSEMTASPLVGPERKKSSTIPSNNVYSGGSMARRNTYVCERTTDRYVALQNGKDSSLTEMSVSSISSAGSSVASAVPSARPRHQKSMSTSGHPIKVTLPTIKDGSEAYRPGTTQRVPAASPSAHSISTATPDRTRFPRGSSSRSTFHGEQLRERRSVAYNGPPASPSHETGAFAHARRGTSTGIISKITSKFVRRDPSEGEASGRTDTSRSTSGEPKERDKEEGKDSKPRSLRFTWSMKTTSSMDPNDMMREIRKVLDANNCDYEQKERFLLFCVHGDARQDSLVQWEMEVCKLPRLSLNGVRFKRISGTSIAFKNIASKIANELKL

BrSK2(h) = target: T2, BrSK2(h) (Homo sapiens, UniProt Q8IWQ3)
T2 sequence (Q8IWQ3 1-736): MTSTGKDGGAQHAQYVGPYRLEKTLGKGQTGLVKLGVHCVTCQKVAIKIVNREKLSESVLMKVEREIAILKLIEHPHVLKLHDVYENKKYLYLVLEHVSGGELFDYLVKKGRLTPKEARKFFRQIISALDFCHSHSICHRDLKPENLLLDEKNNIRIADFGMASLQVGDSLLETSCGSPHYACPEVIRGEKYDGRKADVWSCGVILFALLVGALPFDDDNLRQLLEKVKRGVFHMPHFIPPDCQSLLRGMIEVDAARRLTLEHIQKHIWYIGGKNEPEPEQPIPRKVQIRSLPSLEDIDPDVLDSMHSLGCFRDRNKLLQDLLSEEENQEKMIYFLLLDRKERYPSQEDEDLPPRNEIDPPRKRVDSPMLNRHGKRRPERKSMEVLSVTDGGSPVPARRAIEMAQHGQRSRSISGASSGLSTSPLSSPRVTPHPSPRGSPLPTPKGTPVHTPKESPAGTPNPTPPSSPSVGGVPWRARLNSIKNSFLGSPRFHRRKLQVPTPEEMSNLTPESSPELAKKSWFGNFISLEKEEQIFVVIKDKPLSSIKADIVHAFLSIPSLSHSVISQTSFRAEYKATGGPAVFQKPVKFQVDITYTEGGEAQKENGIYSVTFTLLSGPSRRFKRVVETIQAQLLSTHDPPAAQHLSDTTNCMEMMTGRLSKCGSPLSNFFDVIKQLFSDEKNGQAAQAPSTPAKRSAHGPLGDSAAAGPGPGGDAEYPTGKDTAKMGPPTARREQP

PAK3(h) = PAK3(h) (Homo sapiens, UniProt O75914)
PAK3(h), sequence (O75914 whole entry): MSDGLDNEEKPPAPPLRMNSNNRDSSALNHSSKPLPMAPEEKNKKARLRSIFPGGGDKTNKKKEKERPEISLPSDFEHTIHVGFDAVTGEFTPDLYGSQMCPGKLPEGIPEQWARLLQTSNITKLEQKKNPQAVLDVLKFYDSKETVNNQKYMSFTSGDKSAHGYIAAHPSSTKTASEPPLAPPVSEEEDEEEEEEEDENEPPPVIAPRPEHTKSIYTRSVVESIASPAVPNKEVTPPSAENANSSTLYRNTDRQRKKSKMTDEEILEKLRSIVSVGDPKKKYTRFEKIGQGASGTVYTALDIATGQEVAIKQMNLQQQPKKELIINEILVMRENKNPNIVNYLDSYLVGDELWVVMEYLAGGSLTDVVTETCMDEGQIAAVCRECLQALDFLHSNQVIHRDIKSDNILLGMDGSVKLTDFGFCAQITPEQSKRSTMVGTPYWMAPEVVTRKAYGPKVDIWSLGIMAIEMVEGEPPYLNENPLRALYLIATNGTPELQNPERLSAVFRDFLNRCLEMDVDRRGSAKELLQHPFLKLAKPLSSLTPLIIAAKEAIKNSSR

JNK1α1(h) = JNK1α1(h) (Homo sapiens, UniProt P45983)
JNK1α1(h), sequence (P45983 1-384 isoform P45983-2): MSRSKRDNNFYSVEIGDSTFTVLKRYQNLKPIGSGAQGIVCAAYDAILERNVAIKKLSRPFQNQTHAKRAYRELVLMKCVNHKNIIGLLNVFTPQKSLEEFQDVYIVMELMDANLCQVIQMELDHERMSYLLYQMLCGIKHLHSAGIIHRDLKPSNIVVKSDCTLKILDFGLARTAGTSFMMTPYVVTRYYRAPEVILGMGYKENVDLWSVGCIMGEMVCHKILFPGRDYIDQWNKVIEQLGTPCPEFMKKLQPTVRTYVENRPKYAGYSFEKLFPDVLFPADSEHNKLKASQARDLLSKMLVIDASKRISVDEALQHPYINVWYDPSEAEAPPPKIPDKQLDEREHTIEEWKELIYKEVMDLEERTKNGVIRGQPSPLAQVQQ

Lck(h) = Lck(h) (Homo sapiens, UniProt P06239)
Lck(h), sequence (P06239 whole entry): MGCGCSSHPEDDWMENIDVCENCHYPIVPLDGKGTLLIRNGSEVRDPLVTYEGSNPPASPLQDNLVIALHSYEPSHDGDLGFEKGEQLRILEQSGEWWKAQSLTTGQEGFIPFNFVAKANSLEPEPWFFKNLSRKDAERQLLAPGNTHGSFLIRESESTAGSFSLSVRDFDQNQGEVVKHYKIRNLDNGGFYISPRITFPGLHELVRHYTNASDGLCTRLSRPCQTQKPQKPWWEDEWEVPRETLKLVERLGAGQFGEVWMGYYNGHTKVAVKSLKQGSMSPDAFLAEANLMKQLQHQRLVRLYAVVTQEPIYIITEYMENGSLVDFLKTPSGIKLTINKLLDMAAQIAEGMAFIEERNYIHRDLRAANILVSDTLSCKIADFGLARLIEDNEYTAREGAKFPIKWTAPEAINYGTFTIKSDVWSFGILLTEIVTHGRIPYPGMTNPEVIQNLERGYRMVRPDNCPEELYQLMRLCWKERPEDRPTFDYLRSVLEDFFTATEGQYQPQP

FGFR4(h) = FGFR4(h) (Homo sapiens, UniProt P22455)
JAK3(h) = target: T3, JAK3(h) (Homo sapiens, UniProt P52333)
T3 sequence (P52333 1-1124): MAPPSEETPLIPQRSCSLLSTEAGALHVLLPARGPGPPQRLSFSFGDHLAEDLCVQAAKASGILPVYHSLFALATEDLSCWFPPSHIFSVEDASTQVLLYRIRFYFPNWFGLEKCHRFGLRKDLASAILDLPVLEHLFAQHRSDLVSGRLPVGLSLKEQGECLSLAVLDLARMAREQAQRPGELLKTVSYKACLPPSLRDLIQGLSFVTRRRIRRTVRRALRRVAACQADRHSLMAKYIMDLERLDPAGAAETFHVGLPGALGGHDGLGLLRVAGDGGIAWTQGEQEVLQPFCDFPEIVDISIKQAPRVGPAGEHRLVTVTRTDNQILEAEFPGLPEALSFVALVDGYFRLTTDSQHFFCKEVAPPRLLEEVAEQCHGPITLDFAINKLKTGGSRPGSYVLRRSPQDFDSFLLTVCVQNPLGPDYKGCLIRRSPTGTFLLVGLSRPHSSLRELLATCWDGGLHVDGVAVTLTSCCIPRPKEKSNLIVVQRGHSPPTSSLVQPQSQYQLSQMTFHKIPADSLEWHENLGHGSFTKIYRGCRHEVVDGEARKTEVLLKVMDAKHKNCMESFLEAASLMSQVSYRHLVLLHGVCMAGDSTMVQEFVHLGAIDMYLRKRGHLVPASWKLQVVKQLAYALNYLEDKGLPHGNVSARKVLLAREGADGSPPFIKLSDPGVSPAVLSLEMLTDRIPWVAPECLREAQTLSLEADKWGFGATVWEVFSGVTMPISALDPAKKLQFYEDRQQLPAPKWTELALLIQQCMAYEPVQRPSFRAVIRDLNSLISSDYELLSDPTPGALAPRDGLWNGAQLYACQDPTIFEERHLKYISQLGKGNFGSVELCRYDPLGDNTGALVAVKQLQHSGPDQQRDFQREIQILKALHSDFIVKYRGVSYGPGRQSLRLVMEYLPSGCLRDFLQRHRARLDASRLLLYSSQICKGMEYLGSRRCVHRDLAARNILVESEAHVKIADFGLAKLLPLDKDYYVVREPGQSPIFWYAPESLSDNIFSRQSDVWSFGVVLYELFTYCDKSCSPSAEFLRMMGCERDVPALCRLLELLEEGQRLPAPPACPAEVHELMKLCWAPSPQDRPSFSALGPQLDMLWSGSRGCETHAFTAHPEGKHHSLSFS

PAR-1Bα(h) = PAR-1Bα(h) (Homo sapiens, UniProt Q7KZI7)
PAR-1Bα(h), sequence (Q7KZI7 1-725 isoform Q7KZI7-4): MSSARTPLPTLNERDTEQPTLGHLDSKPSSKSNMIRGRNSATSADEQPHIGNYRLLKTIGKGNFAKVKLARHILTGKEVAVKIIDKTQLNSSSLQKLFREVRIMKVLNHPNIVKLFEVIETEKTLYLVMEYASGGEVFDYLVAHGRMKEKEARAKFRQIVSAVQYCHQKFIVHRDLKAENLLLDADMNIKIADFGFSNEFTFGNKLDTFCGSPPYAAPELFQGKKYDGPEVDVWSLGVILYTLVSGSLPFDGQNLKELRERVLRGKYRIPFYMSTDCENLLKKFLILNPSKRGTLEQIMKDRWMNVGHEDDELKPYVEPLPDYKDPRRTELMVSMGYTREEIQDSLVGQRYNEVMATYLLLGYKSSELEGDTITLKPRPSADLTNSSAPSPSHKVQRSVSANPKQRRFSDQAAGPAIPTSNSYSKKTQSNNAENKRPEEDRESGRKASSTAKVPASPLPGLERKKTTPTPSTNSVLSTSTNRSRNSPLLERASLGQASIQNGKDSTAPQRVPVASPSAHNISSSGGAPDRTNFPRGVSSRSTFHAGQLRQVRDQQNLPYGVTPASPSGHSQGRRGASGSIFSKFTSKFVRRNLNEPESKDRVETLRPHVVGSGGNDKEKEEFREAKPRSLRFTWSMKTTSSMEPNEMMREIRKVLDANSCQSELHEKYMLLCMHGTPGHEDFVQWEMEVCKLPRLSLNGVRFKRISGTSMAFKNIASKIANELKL

MRCKα(h) = MRCKα(h) (Homo sapiens, UniProt Q5VT25)
CK2α2(h) = CK2α2(h) (Homo sapiens, UniProt P19784)
CK2α2(h), sequence (P19784 whole entry): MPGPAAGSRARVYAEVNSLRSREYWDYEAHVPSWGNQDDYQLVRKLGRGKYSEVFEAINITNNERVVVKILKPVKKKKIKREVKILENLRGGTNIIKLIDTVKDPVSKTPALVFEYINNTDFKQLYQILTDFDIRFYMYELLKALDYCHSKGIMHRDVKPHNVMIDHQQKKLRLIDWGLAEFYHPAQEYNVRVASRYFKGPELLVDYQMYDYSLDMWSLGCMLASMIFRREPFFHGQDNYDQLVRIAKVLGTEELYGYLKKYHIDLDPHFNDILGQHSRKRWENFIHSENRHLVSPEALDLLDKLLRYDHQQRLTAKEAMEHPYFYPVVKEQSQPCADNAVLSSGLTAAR

MAPK1(h) = MAPK1(h) (Homo sapiens, UniProt P27361)
MAPK1(h), sequence (P27361 whole entry): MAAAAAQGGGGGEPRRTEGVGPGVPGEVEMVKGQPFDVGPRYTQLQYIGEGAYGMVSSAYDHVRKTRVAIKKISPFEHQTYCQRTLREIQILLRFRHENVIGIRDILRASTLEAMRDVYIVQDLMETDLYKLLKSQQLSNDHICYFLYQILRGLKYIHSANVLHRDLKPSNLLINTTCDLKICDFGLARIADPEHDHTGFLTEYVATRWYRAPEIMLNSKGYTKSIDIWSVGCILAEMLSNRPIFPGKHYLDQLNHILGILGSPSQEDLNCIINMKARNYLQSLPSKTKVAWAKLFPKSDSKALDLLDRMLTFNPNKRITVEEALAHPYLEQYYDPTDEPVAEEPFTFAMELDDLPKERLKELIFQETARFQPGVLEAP

ErbB4(h), sequence (Q15303 26-1308): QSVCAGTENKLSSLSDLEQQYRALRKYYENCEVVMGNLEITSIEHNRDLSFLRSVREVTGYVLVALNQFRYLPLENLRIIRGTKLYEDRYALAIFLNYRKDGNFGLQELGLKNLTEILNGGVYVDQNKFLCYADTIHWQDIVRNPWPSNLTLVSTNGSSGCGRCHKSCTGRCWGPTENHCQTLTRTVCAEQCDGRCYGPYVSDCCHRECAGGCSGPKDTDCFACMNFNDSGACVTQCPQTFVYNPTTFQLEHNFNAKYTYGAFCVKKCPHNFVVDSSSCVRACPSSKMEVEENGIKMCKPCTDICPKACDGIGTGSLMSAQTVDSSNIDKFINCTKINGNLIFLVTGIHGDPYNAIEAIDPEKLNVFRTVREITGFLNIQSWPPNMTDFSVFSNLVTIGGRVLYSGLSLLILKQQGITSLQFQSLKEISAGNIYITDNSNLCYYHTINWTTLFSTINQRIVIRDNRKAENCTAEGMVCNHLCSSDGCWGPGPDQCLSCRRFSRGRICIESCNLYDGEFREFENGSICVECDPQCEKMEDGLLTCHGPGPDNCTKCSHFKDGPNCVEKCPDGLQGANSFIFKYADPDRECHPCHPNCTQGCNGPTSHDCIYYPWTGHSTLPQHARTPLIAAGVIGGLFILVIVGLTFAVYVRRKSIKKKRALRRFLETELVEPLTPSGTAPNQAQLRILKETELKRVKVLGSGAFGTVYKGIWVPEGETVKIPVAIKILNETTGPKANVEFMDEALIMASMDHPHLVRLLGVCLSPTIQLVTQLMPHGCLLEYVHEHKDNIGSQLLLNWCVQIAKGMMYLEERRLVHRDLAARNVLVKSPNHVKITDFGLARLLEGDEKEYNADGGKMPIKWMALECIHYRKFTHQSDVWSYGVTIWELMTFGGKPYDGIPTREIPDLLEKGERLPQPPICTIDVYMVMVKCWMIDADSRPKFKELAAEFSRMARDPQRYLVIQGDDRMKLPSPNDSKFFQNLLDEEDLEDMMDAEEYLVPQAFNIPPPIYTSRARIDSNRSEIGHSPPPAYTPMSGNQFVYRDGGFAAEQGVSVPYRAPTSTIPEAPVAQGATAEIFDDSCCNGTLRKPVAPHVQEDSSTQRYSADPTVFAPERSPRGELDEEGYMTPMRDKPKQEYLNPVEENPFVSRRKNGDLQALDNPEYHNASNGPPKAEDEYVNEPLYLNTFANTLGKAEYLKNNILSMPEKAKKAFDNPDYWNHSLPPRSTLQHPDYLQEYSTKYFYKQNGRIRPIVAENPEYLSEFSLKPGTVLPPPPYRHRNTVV

FAKLAARLYRKALARQLGVAA [MMI-0300]
% activity (ErbB4(h)): 40% | % activity (Aurora-A(h)): 92% | % activity (MARK1(h)): 132% | % activity (BrSK2(h)): 83% | % activity (PAK3(h)): 140% | % activity (JNK1α1(h)): 97% | % activity (Lck(h)): −2% | % activity (FGFR4(h)): 28%

HRRIKAWLKKIKALARQLGVAA [MMI-0500]
% activity (JAK3(h)): 95% | % activity (ErbB4(h)): 2% | % activity (Aurora-A(h)): 110% | % activity (PAR-1Bα(h)): 97% | % activity (MARK1(h)): 110% | % activity (MRCKα(h)): 5% | % activity (BrSK2(h)): 84% | % activity (Lck(h)): 359% | % activity (FGFR4(h)): 3%

KAFAKLAARLYRKALARQLGVAA [MMI-0400]
% activity (JAK3(h)): 122% | % activity (CK2α2(h)): 96% | % activity (ErbB4(h)): 0% | % activity (MARK1(h)): 120% | % activity (MRCKα(h)): 97% | % activity (MAPK1(h)): 100% | % activity (BrSK2(h)): 86% | % activity (JNK1α1(h)): 98% | % activity (FGFR4(h)): 19%

YARAAARQARAKALNRQLGVA [MMI-0200]
% activity (CK2α2(h)): 88% | % activity (ErbB4(h)): 82% | % activity (PAR-1Bα(h)): 110% | % activity (MAPK1(h)): 97% | % activity (PAK3(h)): 50% | % activity (FGFR4(h)): 75%
